{"source": "paper PMC7515635", "molecular_target": "HIS6-GABARAP (human) (UniProt O95166)", "sequence (O95166 whole entry)": "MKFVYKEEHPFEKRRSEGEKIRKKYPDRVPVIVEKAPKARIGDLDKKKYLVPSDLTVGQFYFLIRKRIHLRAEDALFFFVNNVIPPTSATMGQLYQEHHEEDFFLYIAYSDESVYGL", "assay": "native MS; proteins exchanged into ammonium acetate, nanoelectrospray, Synapt G2Si; C53 1-5 µM or IDR 2.5 µM with 5-20 µM ATG8A or GABARAP", "note": "Several values for one entry are separate records, joined by “and”; a condition that tells them apart may be missing. Equal entries are not always repeated.", "data": [{"substance": "HIS6-HsC53 (from UniProt Q96JB5 1-506) (natural protein)", "values": [{"measurement": "stoichiometry N (GABARAP per HsC53)", "value": "1 and 2"}]}]}
